Assay in all cases: SPR
The target in one assay is Cyno BCMA DTA-His (cynomolgus;, UniProt A0A2K5UD97 1-53; P00588 33-225).
The target of another assay is T1, Human BCMA-Avi-His (human, UniProt Q02223 2-54).
T1 chain: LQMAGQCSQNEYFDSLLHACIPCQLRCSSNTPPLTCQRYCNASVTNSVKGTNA

For a further assay, the target named is Cyno BCMA-Avi-His (cynomolgus, UniProt A0A2K5UD97 2-53).
The next assay concerns the target T2, Human BCMA DTA-His (human;, UniProt Q02223 1-54; P00588 33-225).
T2 chain: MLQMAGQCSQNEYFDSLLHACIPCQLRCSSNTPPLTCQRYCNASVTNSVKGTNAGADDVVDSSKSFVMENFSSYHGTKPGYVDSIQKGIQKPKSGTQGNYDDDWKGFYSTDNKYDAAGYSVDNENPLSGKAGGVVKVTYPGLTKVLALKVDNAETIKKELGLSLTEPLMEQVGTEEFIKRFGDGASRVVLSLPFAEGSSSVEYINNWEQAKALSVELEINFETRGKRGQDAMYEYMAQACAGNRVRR

Cyno BCMA-Avi-His, sequence (A0A2K5UD97 entry or part of it): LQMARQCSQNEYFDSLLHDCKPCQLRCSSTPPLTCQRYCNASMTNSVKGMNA

B1: CA10_parental (antibody, V domains shown)
VH: QVQLVESGGGVVQPGRSLRLSCAASGFTFSNFGMHWVRQAPGRGLEWVAVIWSDETNRYYADSVKGRFTVSRDNVKSTVYLQMNSLISEDTAVYYCARDQQYCSSDSCFTWFDPWGQGTLVTVSS
VL: QVVVTQESALTTSPGETVTLTCRSSTGTVTPSNYANWVQEKPDHFFTGLIGDNNSRPPGVPARFSASLIGDKAALTITGAQTEDEAMYFCALWFGNQWVFGGGTKVTVL
As to B1, the Kd with Cyno BCMA DTA-His is 0.0314 nM; with Human BCMA-Avi-His it was 0.0694 nM; in the assay with Cyno BCMA-Avi-His, 1.43 nM; with Human BCMA DTA-His, 0.393 nM.

B2: CA10 Variant 6 (antibody, V domains shown)
VH: QVQLVESGGGVVQPGRSLRLSCAASGFTFSNFGMHWVRQAPGRGLEWVAVIWSDETNRYYADSVKGRFTVSRDNVKSTVYLQMNSLISEDTAVYYCARDQQYCSSDSCFTWFDPWGQGTLVTVSS
VL: QTVVTQEPSLTVSPGGTVTLTCASSTGTVTPSNYANWVQQKPGQFPRGLIGDNNSRPPGTPARFSASLLGGKAALTLSGVQPEDEAEYYCALWFGNQWVFGGGTKLTVL
Regarding B2, the Kd with Cyno BCMA DTA-His is 0.0962 nM; with Human BCMA-Avi-His it was 0.075 nM; with Cyno BCMA-Avi-His it was 1.18 nM; with Human BCMA DTA-His it was 0.0399 nM.

B3: CA10 Variant 3 (antibody, V domains shown)
VH: QVQLVESGGGVVQPGRSLRLSCAASGFTFSNFGMHWVRQAPGRGLEWVAVIWSDETNRYYADSVKGRFTVSRDNVKSTVYLQMNSLISEDTAVYYCARDQQYCSSDSCFTWFDPWGQGTLVTVSS
VL: QTVVTQEPSLTVSPGGTVTLTCASSTGAVTPSNYANWVQQKPGQAPRGLIGDNNIKPPWTPARFSGSLLGGKAALTLSGVQPEDEAEYYCALWYGGQWVFGGGTKLTVL
As to B3, the Kd was 0.861 nM with Cyno BCMA DTA-His, 0.182 nM with Human BCMA-Avi-His, 11.6 nM in the assay with Cyno BCMA-Avi-His and 0.247 nM with Human BCMA DTA-His.

B4: CA10 Variant 5 (CA10_PE_V5) (antibody, V domains shown)
VH: QVQLVESGGGVVQPGRSLRLSCAASGFTFSNFGMHWVRQAPGRGLEWVAVIWSDETNRYYADSVKGRFTVSRDNVKSTVYLQMNSLISEDTAVYYCARDQQYCSSDSCFTWFDPWGQGTLVTVSS
VL: QTVVTQEPSLTVSPGGTVTLTCASSTGAVTSGYYANWVQQKPGQAPRALIGDNNIKPSWTPARFSGSLLGGKAALTLSGVQPEDEAEYYCALYYGGQWVFGGGTKLTVL
On to B4, for which the dissociation constant Kd in the assay with Cyno BCMA DTA-His came to 1.26 nM; with Cyno BCMA-Avi-His, 8.55 nM.

B5: CA10 Variant 1 (antibody, V domains shown)
VH: QVQLVESGGGVVQPGRSLRLSCAASGFTFSNFGMHWVRQAPGRGLEWVAVIWSDETNRYYADSVKGRFTVSRDNVKSTVYLQMNSLISEDTAVYYCARDQQYCSSDSCFTWFDPWGQGTLVTVSS
VL: QTVVTQEPSLTVSPGGTVTLTCRSSTGTVTPSNYANWVQQKPDHFFTGLIGDNNSRPPGVPARFSASLIGDKAALTLSGVQPEDEAEYYCALWFGNQWVFGGGTKLTVL
Consider B5, for which the Kd turned out to be 0.0418 nM with Cyno BCMA DTA-His, 0.0573 nM in the assay with Human BCMA-Avi-His, 0.732 nM with Cyno BCMA-Avi-His and 0.247 nM in the assay with Human BCMA DTA-His.

B6: CA10 Variant 4 (antibody, V domains shown)
VH: QVQLVESGGGVVQPGRSLRLSCAASGFTFSNFGMHWVRQAPGRGLEWVAVIWSDETNRYYADSVKGRFTVSRDNVKSTVYLQMNSLISEDTAVYYCARDQQYCSSDSCFTWFDPWGQGTLVTVSS
VL: QTVVTQEPSLTVSPGGTVTLTCASSTGAVTPGYYANWVQQKPGQAPRGLIGDNNNKPPWTPARFSGSLLGGKAALTLSGVQPEDEAEYYCALYYGGQWVFGGGTKLTVL
Consider B6, for which the Kd amounted to 13 nM with Cyno BCMA DTA-His, 2.57 nM with Human BCMA-Avi-His, 64.2 nM with Cyno BCMA-Avi-His and 3.07 nM in the assay with Human BCMA DTA-His.

B7: CA10 Variant 2 (antibody, V domains shown)
VH: QVQLVESGGGVVQPGRSLRLSCAASGFTFSNFGMHWVRQAPGRGLEWVAVIWSDETNRYYADSVKGRFTVSRDNVKSTVYLQMNSLISEDTAVYYCARDQQYCSSDSCFTWFDPWGQGTLVTVSS
VL: QTVVTQEPSLTVSPGGTVTLTCASSTGTVTPSNYANWVQQKPGQAPRGLIGDNNSRPPGTPARFSASLLGGKAALTLSGVQPEDEAEYYCALWFGNQWVFGGGTKLTVL
As to B7, the dissociation constant (Kd) with Cyno BCMA DTA-His turned out to be 0.0915 nM; with Human BCMA-Avi-His it was 0.0666 nM; in the assay with Cyno BCMA-Avi-His, 1.89 nM; with Human BCMA DTA-His, 0.478 nM.

Source of the values: patent US20240117062A1 (published 2024).
